Test results published in US20170065725A1.

Each substance was assayed against porcine TSH receptor (immobilized, TSH Receptor Autoantibody 2nd Generation ELISA kit, RSR Limited) (porcine) (UniProt Q8SPP9) (assay: competition ELISA; inhibition of biotinylated rhTSH binding to immobilized porcine TSH receptor).
Chain of porcine TSH receptor (immobilized, TSH Receptor Autoantibody 2nd Generation ELISA kit, RSR Limited) (porcine) (Q8SPP9 22-764 limits assumed): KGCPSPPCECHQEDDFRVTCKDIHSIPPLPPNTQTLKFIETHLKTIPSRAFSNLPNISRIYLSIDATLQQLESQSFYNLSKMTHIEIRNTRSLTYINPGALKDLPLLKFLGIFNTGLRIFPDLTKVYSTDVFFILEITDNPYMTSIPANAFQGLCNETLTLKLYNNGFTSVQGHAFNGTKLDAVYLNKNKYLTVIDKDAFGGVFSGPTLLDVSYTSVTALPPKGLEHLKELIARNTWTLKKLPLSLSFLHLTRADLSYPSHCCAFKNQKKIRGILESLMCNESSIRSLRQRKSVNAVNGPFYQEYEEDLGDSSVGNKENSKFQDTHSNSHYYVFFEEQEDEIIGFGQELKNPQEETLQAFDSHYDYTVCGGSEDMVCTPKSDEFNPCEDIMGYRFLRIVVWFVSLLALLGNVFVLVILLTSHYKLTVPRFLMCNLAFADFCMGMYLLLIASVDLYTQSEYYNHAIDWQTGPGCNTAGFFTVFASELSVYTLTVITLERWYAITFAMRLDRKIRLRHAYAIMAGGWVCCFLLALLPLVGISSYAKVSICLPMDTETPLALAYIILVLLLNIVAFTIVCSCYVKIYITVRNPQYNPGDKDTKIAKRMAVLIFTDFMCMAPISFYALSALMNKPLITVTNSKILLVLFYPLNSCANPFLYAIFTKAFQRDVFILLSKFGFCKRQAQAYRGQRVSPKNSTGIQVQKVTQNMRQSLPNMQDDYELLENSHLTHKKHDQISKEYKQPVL

Chain of PEG rhTSH (40 KD GAM+), monoPEGylated (ligand) (P01215 25-116): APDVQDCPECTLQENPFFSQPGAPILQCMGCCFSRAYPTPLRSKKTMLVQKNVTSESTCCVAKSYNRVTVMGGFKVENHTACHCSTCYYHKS
Chain of PEG rhTSH (40 KD GAM+), monoPEGylated (ligand) (P01222 21-138, further chain): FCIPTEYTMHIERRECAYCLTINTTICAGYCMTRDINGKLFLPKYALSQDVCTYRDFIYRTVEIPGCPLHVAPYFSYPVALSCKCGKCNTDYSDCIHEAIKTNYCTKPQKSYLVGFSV
Chain of PEG rhTSH (10 KD MultiSAM) (ligand) (P01215 25-116): as the sequence (P01215 25-116) above
Chain of PEG rhTSH (10 KD MultiSAM) (ligand) (P01222 21-138, further chain): as the sequence (P01222 21-138, further chain) above
Chain of PEG rhTSH (20 KD GAM+), monoPEGylated (ligand) (P01215 25-116): as the sequence (P01215 25-116) above
Chain of PEG rhTSH (20 KD GAM+), monoPEGylated (ligand) (P01222 21-138, further chain): as the sequence (P01222 21-138, further chain) above
Chain of PEG rhTSH (10 KD SAM), monoPEGylated (ligand) (P01215 25-116): as the sequence (P01215 25-116) above
Chain of PEG rhTSH (10 KD SAM), monoPEGylated (ligand) (P01222 21-138, further chain): as the sequence (P01222 21-138, further chain) above
Chain of PEG rhTSH (20 KD GAM-), monoPEGylated (ligand) (P01215 25-116): as the sequence (P01215 25-116) above
Chain of PEG rhTSH (20 KD GAM-), monoPEGylated (ligand) (P01222 21-138, further chain): as the sequence (P01222 21-138, further chain) above
Chain of PEG rhTSH (20 KD SAM), monoPEGylated (ligand) (P01215 25-116): as the sequence (P01215 25-116) above
Chain of PEG rhTSH (20 KD SAM), monoPEGylated (ligand) (P01222 21-138, further chain): as the sequence (P01222 21-138, further chain) above
Chain of PEG rhTSH (40 KD SAM), monoPEGylated (ligand) (P01215 25-116): as the sequence (P01215 25-116) above
Chain of PEG rhTSH (40 KD SAM), monoPEGylated (ligand) (P01222 21-138, further chain): as the sequence (P01222 21-138, further chain) above
Chain of mono-40 kDa NHS PEG-TSH (Lysine PEGylation) (ligand) (P01215 25-116): as the sequence (P01215 25-116) above
Chain of mono-40 kDa NHS PEG-TSH (Lysine PEGylation) (ligand) (P01222 21-138, further chain): as the sequence (P01222 21-138, further chain) above
Chain of PEG rhTSH (40 KD GAM-), monoPEGylated (ligand) (P01215 25-116): as the sequence (P01215 25-116) above
Chain of PEG rhTSH (40 KD GAM-), monoPEGylated (ligand) (P01222 21-138, further chain): as the sequence (P01222 21-138, further chain) above

Row | Substance | IC50 | fold change (IC50 against rhTSH)
1 | PEG rhTSH (20 KD GAM+), monoPEGylated (ligand) | 81.7 nM | 2.2 fold
2 | PEG rhTSH (20 KD GAM-), monoPEGylated (ligand) | 101 nM | 2.7 fold
3 | PEG rhTSH (40 KD GAM+), monoPEGylated (ligand) | 133 nM | 3.6 fold
4 | PEG rhTSH (40 KD GAM-), monoPEGylated (ligand) | 294 nM | 8 fold
5 | PEG rhTSH (40 KD SAM), monoPEGylated (ligand) | 196 nM | 5.3 fold
6 | mono-40 kDa NHS PEG-TSH (Lysine PEGylation) (ligand) | 876 nM | 31.2 fold

Next, values leading:

Row | IC50 | fold change (IC50 against rhTSH) | Substance
7 | 138 nM | 3.8 fold | PEG rhTSH (10 KD MultiSAM) (ligand)
8 | 78.1 nM | 2.1 fold | PEG rhTSH (10 KD SAM), monoPEGylated (ligand)
9 | 92.3 nM | 2.5 fold | PEG rhTSH (20 KD SAM), monoPEGylated (ligand)
